Laboratory results published in patent publication US20220218752A1 (University of Washington, published 2022).

Legend:
[1] = target: T1, Her2-eGFP (hsHER2_ecd_tm-eGFP) (human (printed as hs)); experiment: flow cytometry on mixed K562 cells expressing Her2-eGFP, EGFR-iRFP, both or neither; DARPin pre-complexed with Bcl2-AF594, 3-fold dilutions from 300 nM to 0.4 nM
T1 construct: Her2 ectodomain and transmembrane region fused to eGFP, expressed on K562 cells by lentiviral transduction; also called K562/Her2
Method: (§1) FIG. 21. DARPin binder affinity measured by flow cytometry. Anti-Her2 or anti-EGFR DARPins with N-terminal fusions to Bim were pre-complexed with Bcl2-AF594 and serially diluted 3-fold from 300 nM down to 0.4 nM. This dilution series was used to label a mixed population of K562 cells expressing Her2-eGFP, EGFR-iRFP, both, or neither for one hour at room temperature in a 50 μl incubation volume. The cells were then washed in PBS supplemented with 0.1% bovine serum albumin and analyzed on an LSRII flow cytometer.

[2] = target: T2, EGFR-iRFP (hsEGFR_ecd_tm-iRFP) (human (printed as hs)); experiment: as above
T2 construct: EGFR ectodomain and transmembrane region fused to iRFP, expressed on K562 cells by lentiviral transduction; also called K562/EGFR
Method: as §1

T2 sequence (chain, as listed by the source limits assumed): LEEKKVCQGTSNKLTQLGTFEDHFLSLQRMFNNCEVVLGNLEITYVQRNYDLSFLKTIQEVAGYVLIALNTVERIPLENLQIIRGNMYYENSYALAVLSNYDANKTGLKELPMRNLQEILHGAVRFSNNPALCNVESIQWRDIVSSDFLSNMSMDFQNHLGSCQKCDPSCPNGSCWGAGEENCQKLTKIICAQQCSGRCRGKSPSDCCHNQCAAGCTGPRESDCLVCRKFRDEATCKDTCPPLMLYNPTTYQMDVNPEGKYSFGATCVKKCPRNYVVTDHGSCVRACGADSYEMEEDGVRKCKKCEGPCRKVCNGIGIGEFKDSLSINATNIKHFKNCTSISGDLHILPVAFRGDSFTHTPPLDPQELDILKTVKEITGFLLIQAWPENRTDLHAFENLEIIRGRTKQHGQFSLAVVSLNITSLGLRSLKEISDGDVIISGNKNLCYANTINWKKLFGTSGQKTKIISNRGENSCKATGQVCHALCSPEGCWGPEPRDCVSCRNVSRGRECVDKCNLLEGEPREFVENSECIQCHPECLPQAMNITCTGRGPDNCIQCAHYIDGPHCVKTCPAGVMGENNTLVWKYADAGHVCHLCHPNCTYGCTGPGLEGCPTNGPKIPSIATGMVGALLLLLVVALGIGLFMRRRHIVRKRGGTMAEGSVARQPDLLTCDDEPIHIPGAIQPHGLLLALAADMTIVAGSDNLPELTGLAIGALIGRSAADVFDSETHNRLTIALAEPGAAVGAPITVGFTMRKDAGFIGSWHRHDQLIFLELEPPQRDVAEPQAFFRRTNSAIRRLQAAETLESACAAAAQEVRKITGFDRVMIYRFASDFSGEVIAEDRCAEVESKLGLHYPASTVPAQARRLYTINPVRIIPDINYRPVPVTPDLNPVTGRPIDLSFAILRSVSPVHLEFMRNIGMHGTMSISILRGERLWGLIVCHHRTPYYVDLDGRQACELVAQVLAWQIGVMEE

B1: Bim_Her2 (Her2 DARPin tagged with N-terminal Bim peptide) (designed binder)
chain: MGSHHHHHHGSGSENLYFQGSTDEIWIAQELRRIGDEFNAYYASGSGDLGKKLLEAARAGQDDEVRILMANGADVNAKDEYGLTPLYLATAHGHLEIVEVLLKNGADVNAVDAIGFTPLHLAAFIGHLEIAEVLLKHGADVNAQDKFGKTAFDISIGNGNEDLAEILQKLN
notes: also called anti-Her2 DARPin with N-terminal fusion to Bim; Bim-DARPin
[1]
  Kd: ~10 nM

B2: Bim_EGFR (EGFR DARPin tagged with N-terminal Bim peptide) (designed binder)
chain: MGSHHHHHHGSGSENLYFQGSTDEIWIAQELRRIGDEFNAYYASGSGDLGKKLLEAARAGQDDEVRILMANGADVNADDTWGWTPLHLAAYQGHLEIVEVLLKNGADVNAYDYIGWTPLHLAADGHLEIVEVLLKNGADVNASDYIGDTPLHLAAHNGHLEIVEVLLKHGADVNAQDKFGKTAFDISIDNGNEDLAEILQKLN
notes: also called anti-EGFR DARPin with N-terminal fusion to Bim; Bim-DARPin
[2]
  Kd: ~10 nM
